Residue numbers refer to the chain shown, from its start.

The record followed here is patent US20210332142A1 (Genentech, published 2021).

T1: recombinant cyno Tie2 extracellular domain (cynomolgus monkey, UniProt Q02763 23-748 (human entry))
T1 construct: also called Recombinant cyno Tie2 ECD; cy Tie2
T1 chain: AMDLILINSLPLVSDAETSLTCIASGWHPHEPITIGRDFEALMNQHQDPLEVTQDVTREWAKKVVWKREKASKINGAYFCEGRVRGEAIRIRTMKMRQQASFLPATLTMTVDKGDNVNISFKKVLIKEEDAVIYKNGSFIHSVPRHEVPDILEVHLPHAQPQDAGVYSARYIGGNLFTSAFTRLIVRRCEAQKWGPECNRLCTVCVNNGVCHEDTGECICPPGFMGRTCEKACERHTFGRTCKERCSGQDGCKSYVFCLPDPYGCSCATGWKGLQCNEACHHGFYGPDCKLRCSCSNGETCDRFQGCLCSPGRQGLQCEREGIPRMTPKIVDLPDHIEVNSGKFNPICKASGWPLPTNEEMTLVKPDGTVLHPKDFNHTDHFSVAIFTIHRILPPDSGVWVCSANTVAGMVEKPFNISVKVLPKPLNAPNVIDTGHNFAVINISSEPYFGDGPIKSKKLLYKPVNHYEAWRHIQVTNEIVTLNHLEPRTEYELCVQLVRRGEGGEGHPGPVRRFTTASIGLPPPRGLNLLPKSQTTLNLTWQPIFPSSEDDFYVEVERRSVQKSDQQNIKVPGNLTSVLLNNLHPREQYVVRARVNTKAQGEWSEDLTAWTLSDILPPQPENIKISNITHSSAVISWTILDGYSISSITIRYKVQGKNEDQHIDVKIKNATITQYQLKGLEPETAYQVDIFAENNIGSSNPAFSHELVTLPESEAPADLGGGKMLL

B1: Tie2.1.M100cY (antibody, IgG1, name in Kabat numbering, V domains shown)
VH: EVQLVESGGGLVQPGGSLRLSCAASGFTFSNTDISWVRQAPGKGLEWVGRISPSDGNTYYADSVKGRFTISADTSKNTAYLQMNSLRAEDTAVYYCARRTRWASWAYDYWGQGTLVTVSS
VL: DIQMTQSPSSLSASVGDRVTITCRASQDVSTAVAWYQQKPGKAPKLLIYSASFLYSGVPSRFSGSGSGTDFTLTISSLQPEDFATYYCQQSYTTPPTFGQGTKVEIKR
notes: hIgG1
B2: Tie2.1.M100cI (antibody, IgG1, name in Kabat numbering, V domains shown)
VH: B1 VH with Y107I
VL: B1 VL
notes: hIgG1
B3: Tie2.1.M100cL (antibody, IgG1, name in Kabat numbering, V domains shown)
VH: B1 VH with Y107L
VL: B1 VL
notes: hIgG1
B4: Tie2.1.M100cA (antibody, IgG1, name in Kabat numbering, V domains shown)
VH: B1 VH with Y107A
VL: B1 VL
notes: hIgG1
B5: Tie2.1.M100cP (antibody, IgG1, name in Kabat numbering, V domains shown)
VH: B1 VH with Y107P
VL: B1 VL
notes: hIgG1
B6: Tie2.1.M100cG (antibody, IgG1, name in Kabat numbering, V domains shown)
VH: B1 VH with Y107G
VL: B1 VL
notes: hIgG1
B7: Tie2.1.M100cC (antibody, IgG1, name in Kabat numbering, V domains shown)
VH: B1 VH with Y107C
VL: B1 VL
notes: hIgG1
B8: Tie2.1.M100cK (antibody, IgG1, name in Kabat numbering, V domains shown)
VH: B1 VH with Y107K
VL: B1 VL
notes: hIgG1
B9: Tie2.1.M100cR (antibody, IgG1, name in Kabat numbering, V domains shown)
VH: B1 VH with Y107R
VL: B1 VL
notes: hIgG1
B10: Tie2.1.M100cH (antibody, IgG1, name in Kabat numbering, V domains shown)
VH: B1 VH with Y107H
VL: B1 VL
notes: hIgG1
B11: Tie2.1.M100cV (antibody, IgG1, name in Kabat numbering, V domains shown)
VH: B1 VH with Y107V
VL: B1 VL
notes: hIgG1
B12: Tie2.1.M100cT (antibody, IgG1, name in Kabat numbering, V domains shown)
VH: B1 VH with Y107T
VL: B1 VL
notes: hIgG1
B13: Tie2.1.M100cW (antibody, IgG1, name in Kabat numbering, V domains shown)
VH: B1 VH with Y107W
VL: B1 VL
notes: hIgG1
B14: Tie2.1.M100cN (antibody, IgG1, name in Kabat numbering, V domains shown)
VH: B1 VH with Y107N
VL: B1 VL
notes: hIgG1
B15: Tie2.34 (antibody, IgG1, V domains shown)
VH: EVQLVESGGGLVQPGGSLRLSCAASGFTFSDTYIHWVRQAPGKGLEWVAVIYPDNGATYYADSVKGTYYADSVKGRFTISADTSKNTAYLQMNSLRAEDTAVYYCAREFACARCVYGMDYWGQGTLVTVSS
VL: B1 VL
notes: hIgG1 in Biacore; also called Ab34

In the first assay the target is T1, recombinant cyno Tie2 extracellular …. The experiment in a line: SPR, IgG captured, 37C. As to the method: (§1) A human antibody capture chip was prepared using a Series S CM5 chip (GE Life Sciences), a human antibody capture kit (GE Life Sciences) and an amine coupling kit (GE Life Sciences). Antibodies diluted to 5 μg/ml in running buffer (10 mM HEPES, 150 mM NaCl, 0.05% Tween 20, 1 mM EDTA, pH 7.4) were non-covalently captured using a contact time of 20 seconds and a flow rate of 10 μl/minute. Binding to 300 nM and 1500 nM recombinant Tie2 was analyzed at 37° C. using a Single Cycle Kinetics method with a contact time of 60 seconds, a dissociation time of 120 seconds and a flow rate of 50 μl/min. Between cycles, the surface was regenerated by a 30 second injection of 3M MgCl₂ at a flow rate of 30 μl/min. Values for antibody capture levels and analyte binding levels were obtained from the Report Point Table (Biacore Evaluation Software v3.0, GE Life Sciences). […] Table 16: Experiment A; Table 17: Experiment B.
With B1, the “Normalized Binding Signal, 300 nM” value stood at 0.13 and the “Normalized Binding Signal, 1500 nM” value was 0.44.
For B2, the “Normalized Binding Signal, 300 nM” value was found to be 0.03 and the “Normalized Binding Signal, 1500 nM” value was 0.12.
For B3, in that order: 0.11 and 0.4.

The target of another assay is T2, recombinant human Tie2 extracellular domain (human, UniProt Q02763 23-748).
T2 construct: whole entry named; also called Recombinant human Tie2 ECD; hu Tie2
T2 sequence (Q02763 23-748 limits assumed): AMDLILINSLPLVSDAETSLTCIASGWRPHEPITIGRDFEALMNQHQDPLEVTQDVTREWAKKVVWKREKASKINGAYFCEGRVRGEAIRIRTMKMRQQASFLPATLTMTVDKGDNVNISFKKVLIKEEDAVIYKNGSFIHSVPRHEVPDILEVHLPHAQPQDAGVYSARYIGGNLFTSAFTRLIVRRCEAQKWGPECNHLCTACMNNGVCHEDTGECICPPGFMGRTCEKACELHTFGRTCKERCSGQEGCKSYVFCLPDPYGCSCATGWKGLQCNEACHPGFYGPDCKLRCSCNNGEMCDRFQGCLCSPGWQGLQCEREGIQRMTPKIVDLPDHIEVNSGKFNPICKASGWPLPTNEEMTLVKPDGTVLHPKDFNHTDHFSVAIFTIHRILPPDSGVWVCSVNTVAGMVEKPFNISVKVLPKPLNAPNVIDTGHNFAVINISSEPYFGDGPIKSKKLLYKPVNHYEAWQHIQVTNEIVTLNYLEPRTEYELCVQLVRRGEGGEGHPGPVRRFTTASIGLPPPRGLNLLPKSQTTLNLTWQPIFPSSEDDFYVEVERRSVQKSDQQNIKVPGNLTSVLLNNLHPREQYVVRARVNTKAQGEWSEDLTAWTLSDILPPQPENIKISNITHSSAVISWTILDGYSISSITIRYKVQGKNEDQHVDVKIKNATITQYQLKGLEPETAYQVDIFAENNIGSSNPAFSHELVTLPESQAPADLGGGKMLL
The experiment in a line: SPR, IgG captured, 37C. As to the method:
as §1
As for B1, the “Normalized Binding Signal, 300 nM” value worked out at 0.15 and the “Normalized Binding Signal, 1500 nM” value turned out to be 0.46.
For the molecule B2, the “Normalized Binding Signal, 300 nM” value was 0.04 and the “Normalized Binding Signal, 1500 nM” value amounted to 0.14.
Regarding B3, the “Normalized Binding Signal, 300 nM” value was 0.13 and the “Normalized Binding Signal, 1500 nM” value turned out to be 0.42.

Another assay concerns the target T1, recombinant cyno Tie2 extracellular …. The experiment in a line: SPR, IgG captured, 37C. The source holds these as a separate data set. As to the method: as §1
As for B4, the “Normalized Binding Signal, 300 nM” value was determined as 0.03 and the “Normalized Binding Signal, 1500 nM” value amounted to 0.13.
As for B5, the “Normalized Binding Signal, 300 nM” value is 0.02 and the “Normalized Binding Signal, 1500 nM” value was 0.1.
For B6, the “Normalized Binding Signal, 300 nM” value was found to be 0.05 and the “Normalized Binding Signal, 1500 nM” value was 0.2.
B7: the “Normalized Binding Signal, 300 nM” value was determined as 0.1 and the “Normalized Binding Signal, 1500 nM” value was found to be 0.35.
Take B8: the “Normalized Binding Signal, 300 nM” value turned out to be 0.11 and the “Normalized Binding Signal, 1500 nM” value was determined as 0.39.
As to B9, the “Normalized Binding Signal, 300 nM” value came out at 0.05 and the “Normalized Binding Signal, 1500 nM” value amounted to 0.2.
On to B1, for which the “Normalized Binding Signal, 300 nM” value came to 0.13 and the “Normalized Binding Signal, 1500 nM” value was 0.45.
For B10, in that order: 0.1 and 0.36.
For B2, in that order: 0.03 and 0.13.
Turning to B3, the “Normalized Binding Signal, 300 nM” value amounted to 0.1 and the “Normalized Binding Signal, 1500 nM” value stood at 0.39.
With B11, the “Normalized Binding Signal, 300 nM” value was found to be 0.04 and the “Normalized Binding Signal, 1500 nM” value was determined as 0.15.
For B12, in that order: 0.02 and 0.09.
On to B13, for which the “Normalized Binding Signal, 300 nM” value turned out to be 0.07 and the “Normalized Binding Signal, 1500 nM” value stood at 0.29.
For B14, the “Normalized Binding Signal, 300 nM” value came to 0.1 and the “Normalized Binding Signal, 1500 nM” value was determined as 0.36.

In the next assay the target is T2, recombinant human Tie2 extracellular …. The experiment in a line: SPR, IgG captured, 37C. The source holds these as a separate data set. The protocol: as §1
Take B4: the “Normalized Binding Signal, 300 nM” value worked out at 0.03 and the “Normalized Binding Signal, 1500 nM” value was found to be 0.14.
Turning to B5, the “Normalized Binding Signal, 300 nM” value was 0.02 and the “Normalized Binding Signal, 1500 nM” value is 0.11.
On to B6, for which the “Normalized Binding Signal, 300 nM” value turned out to be 0.06 and the “Normalized Binding Signal, 1500 nM” value was determined as 0.21.
As to B7, the “Normalized Binding Signal, 300 nM” value stood at 0.11 and the “Normalized Binding Signal, 1500 nM” value came to 0.37.
Consider B8, for which the “Normalized Binding Signal, 300 nM” value was determined as 0.13 and the “Normalized Binding Signal, 1500 nM” value was 0.41.
For the molecule B9, the “Normalized Binding Signal, 300 nM” value is 0.06 and the “Normalized Binding Signal, 1500 nM” value came to 0.22.
As for B1, the “Normalized Binding Signal, 300 nM” value was 0.15 and the “Normalized Binding Signal, 1500 nM” value is 0.47.
For the molecule B10, the “Normalized Binding Signal, 300 nM” value was 0.11 and the “Normalized Binding Signal, 1500 nM” value turned out to be 0.39.
For B2, the “Normalized Binding Signal, 300 nM” value turned out to be 0.03 and the “Normalized Binding Signal, 1500 nM” value was 0.14.
On to B3, for which the “Normalized Binding Signal, 300 nM” value amounted to 0.12 and the “Normalized Binding Signal, 1500 nM” value stood at 0.41.
For B11, in that order: 0.04 and 0.16.
As for B12, the “Normalized Binding Signal, 300 nM” value turned out to be 0.02 and the “Normalized Binding Signal, 1500 nM” value amounted to 0.1.
For B13, the “Normalized Binding Signal, 300 nM” value was 0.08 and the “Normalized Binding Signal, 1500 nM” value was 0.31.
For B14, in that order: 0.11 and 0.38.

In the next assay the target is T3, human Tie2ECD.flag (human, UniProt Q02763 23-748).
T3 construct: also called hTie2.flag; not shown: C-terminal Flag tag
T3 sequence (Q02763 23-748 limits assumed): as above
The experiment in a line: Biacore, hIgG captured, 25C. As to the method: (§2) Monovalent affinities of selected anti-Tie2 hIgGs were determined using a Biacore T200 instrument (GE Life Sciences). Anti-humanFc was covalently immobilized on a Series S CM5 Biacore sensor chip to enable non-covalent capture of anti-Tie2 antibodies and binding of human or rat Tie2ECD.flag was monitored in real time at 25° C. using a multi-cycle kinetics experiment format. Between cycles, the surface was regenerated with 3 M MgCl₂. Monovalent affinities were determined by kinetic analysis, using Biacore Evaluation Software (GE Life Sciences) to fit a 1:1 binding model to the data.
B15 yielded a dissociation constant (Kd) of 155 nM.

For a further assay, the target named is T4, rat Tie2ECD.flag (rat, UniProt A0ABK0L6J5 19-740).
T4 construct: extracellular domain; also called rTie2.flag; not shown: C-terminal Flag tag
The experiment in a line: Biacore, hIgG captured, 25C. The protocol: as §2
B15: the Kd was determined as 57 nM. This counts as double-digit nanomolar.
